The results in this text go back to patent US20030186841.

What all share (test): cell_activity
One data set has as its system E2E-PBD-VP64 (synthetic). The conditions noted are these: +RU486; basal 18259, control 17209.
Data set [1] relates to C7LBDAS G400V G400V (human ER numbering) (synthetic). The conditions noted are these: ligand-dependent, 6x2C7pGL3Luc.
For another data set, the system named is C7LBDAS (synthetic). The conditions noted are these: ligand-dependent, 6x2C7pGL3Luc.
The subject of the next data set is 2C7LBDAS (synthetic). The conditions noted are these: about; estrogen, 6x2C7 SV40 luc, Cos cells.
Data set [2] deals with E2C(Sp1)-ERD six-finger repressor (synthetic). The conditions noted are these: approximately; HeLa luciferase.
Data set [3] deals with E2C-ER//ER-VP64 heterodimer (synthetic). The conditions noted are these: tamoxifen-dependent; maximum at optimised partner ratio.
The subject of data set [4] is E2C-ER//ER-KRAB heterodimer (synthetic). The conditions noted are these: tamoxifen-dependent; partner ratio 1/10.
In data set [5] the test system is SID-E2C(Sp1) six-finger repressor (synthetic). The conditions noted are these: approximately; HeLa luciferase.
Data set [6] concerns E2C(Sp1) six-finger, no effector domain (synthetic). The conditions noted are these: approximately; HeLa luciferase, no effector domain.

In turn, “GCCGGAGCCATGGGGCCGGAGCC (double strand) [E2E site in erbB-2 promoter reporter]” returned an activity (luciferase units) in the data set with E2E-PBD-VP64 (synthetic) of 15900.
As for “GCGTGGGCG (double strand) [C7 site of 6x2C7 luc reporter]”, the activity (fold induction) in data set [1] was 420; in the data set on C7LBDAS (synthetic) it was 10; in the data set on 2C7LBDAS (synthetic) it was 2.
For “GGGGCCGGAGCCGCAGTG (double strand) [E2C site in erbB-2 promoter reporter]”, the activity in data set [2] came to 50 % repression; in [5], 80 % repression; in data set [6], 30 % repression. Moreover, in data set [3], the activity (fold activation) was determined as 5.3. The activity (fold repression) in data set [4] stood at 2.9.
